The source of these data is paper PMC10534222.

In assay [1] the target is FITC-labelled peptide (FITC)…. Kind of assay: fluorescence polarisation. In general terms: Fluorescence polarisation rises when a labelled molecule tumbles more slowly, as on binding a larger partner.
In assay [2] the target is chicken Tapasin (chTapasin), luminal domain (chicken (Gallus gallus)). Kind of assay: SPR. In general terms: Surface plasmon resonance follows binding to a sensor surface in real time, without labels.
Assay [3] has the same target. Kind of assay: NMR titration.

By Kd is commonly meant the equilibrium constant for the complex coming apart. Low values mean a tighter complex, high ones a looser complex. In assay [1], “empty open B*37:01/chTapasin complex (from UniProt P61769 21-119)” displayed a Kd of 5.5 nM. This lies in the single-digit nanomolar range.
Take “open HLA-B*37:01 (heavy chain G120C, β2m H31C, interchain disulfide), empty (UV-irradiated) (from UniProt P61769 21-119) (complex)”: the figures for the Kd in assay [2] and in assay [1] were 1200 nM and 6.16 nM, respectively. The lifetime of the complex in assay [3] was > 200 ms.
